Reference: the supplement of paper PMC10724198
± gives the standard deviation of the averaged measurements.

tested on: Saccharomyces cerevisiae; experiment: protein stability index of tFT-peptide fusion (C-terminal peptide) (PSI (0-1 scale)); higher = more stable (slower turnover); details: genetic background: wild type; temperature: 37 C
Procedure: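 MPS profiling in S. cerevisiae of the tFT-X12 degron library: putative degron peptides plus stable controls, 12 aa, fused to the C-terminus of a sfGFP-mCherry timer. Cells are FACS-sorted into 8 mCherry/sfGFP bins and deep-sequenced. PSI runs from 0 (unstable) to 1 (stable). Backgrounds are wild type, das1Δ and doa10Δ at 30 °C, and wild type, das1Δ, cdc34-1 and cdc53-1 at 37 °C; 2-3 technical replicates each.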
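Further: PSI is a weighted mean of sequencing reads over stability bins, variants kept only with over 10 reads, mCherry proximal and sfGFP distal, peptide attached via GGGS linker.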

Sequence | protein stability index
FVMTYCLMSVSK | 0.0478 ± 0.025
FVRSVFFCVSVG | 0.5 ± 0.018
FVWAVGLVSASV | 0.52 ± 0.0091
FWLFAFVIRKHI | 0.0641 ± 0.012
FYSLYLSLVCFN | 0.256 ± 0.014
GAVKCLVCLAVW | 0.3844 ± 0.00071
GCGFSFFHIVVL | 0.225 ± 0.0047
GCLFMQVSLFWR | 0.26 ± 0.017
GDINRNTRYLEK | 0.702 ± 0.024
GFGRRGQFGGTG | 0.835 ± 0.059
GFRVTTCASWIC | 0.191 ± 0.012
GFSEGRLTIPVY | 0.476 ± 0.01
GFVISSCRLFIL | 0.3989 ± 0.0031
GFVLLCFCCRTW | 0.426 ± 0.03
GGCYAGVAMRLI | 0.681 ± 0.025
GGGVGVVWVRLG | 0.137 ± 0.017
GGLFRWCVWRIV | 0.172 ± 0.025

Sequence | protein stability index
GGSWVRCLRTMG | 0.399 ± 0.032
GGVWLSVVSWVG | 0.244 ± 0.0053
GGWSLFCIVVVV | 0.253 ± 0.0092
GIFVWWFWGCCG | 0.5283 ± 0.0019
GILILRLILCLF | 0.24 ± 0.012
GILLLLISRVVF | 0.413 ± 0.0093
GILVVAASICYV | 0.488 ± 0.015
GKKKREWKKNRI | 0.552 ± 0.0071
GLCLFLIGVFSV | 0.381 ± 0.026
GLFAVWVVGVWC | 0.202 ± 0.011
GLFLLWWLGWLV | 0.5187 ± 0.0047
GLFLYCCLVSLL | 0.33 ± 0.0091
GLLLVWAALGFV | 0.439 ± 0.0095
GLVVWWLSGWLW | 0.425 ± 0.048
GMGHLSNVCLKT | 0.706 ± 0.027
GRLDHWNKHKYI | 0.14 ± 0.032

tested on: Saccharomyces cerevisiae; experiment: as above; details: genetic background: wild type; temperature: 30 C

Sequence | protein stability index
FVMTYCLMSVSK | 0.0465 ± 0.035
FVRSVFFCVSVG | 0.469 ± 0.057
FVWAVGLVSASV | 0.503 ± 0.01
FWLFAFVIRKHI | 0.2057 ± 0.00034
FYSLYLSLVCFN | 0.224 ± 0.0011
GAVKCLVCLAVW | 0.404 ± 0.022
GCGFSFFHIVVL | 0.121 ± 0.0051
GCLFMQVSLFWR | 0.286 ± 0.028
GDINRNTRYLEK | 0.556 ± 0.18
GFGRRGQFGGTG | 0.574 ± 0.14
GFRVTTCASWIC | 0.177 ± 0.02
GFSEGRLTIPVY | 0.455 ± 0.047
GFVISSCRLFIL | 0.337 ± 0.044
GFVLLCFCCRTW | 0.393 ± 0.004
GGCYAGVAMRLI | 0.76 ± 0.015
GGGVGVVWVRLG | 0.256 ± 0.028
GGLFRWCVWRIV | 0.145 ± 0.0086

Sequence | protein stability index
GGSWVRCLRTMG | 0.312 ± 0.029
GGVWLSVVSWVG | 0.167 ± 0.021
GGWSLFCIVVVV | 0.268 ± 0.074
GIFVWWFWGCCG | 0.399 ± 0.01
GILILRLILCLF | 0.227 ± 0.0044
GILLLLISRVVF | 0.371 ± 0.011
GILVVAASICYV | 0.447 ± 0.018
GKKKREWKKNRI | 0.382 ± 0.021
GLCLFLIGVFSV | 0.4425 ± 0.0022
GLFAVWVVGVWC | 0.212 ± 0.052
GLFLLWWLGWLV | 0.422 ± 0.036
GLFLYCCLVSLL | 0.283 ± 0.011
GLLLVWAALGFV | 0.3431 ± 0.00066
GLVVWWLSGWLW | 0.373 ± 0.0071
GMGHLSNVCLKT | 0.597 ± 0.17
GRLDHWNKHKYI | 0.184 ± 0.0029
